# From US20170088605A1 (Novartis, published 2017)
# Numbering of substitutions follows the chain as printed. Like-named read-outs stand apart in the source and are kept apart here.
# T1: BKV serotype I infectious virus (VP1) (BK virus serotype I, UniProt P03088 1-362)
# T1 sequence (looked up): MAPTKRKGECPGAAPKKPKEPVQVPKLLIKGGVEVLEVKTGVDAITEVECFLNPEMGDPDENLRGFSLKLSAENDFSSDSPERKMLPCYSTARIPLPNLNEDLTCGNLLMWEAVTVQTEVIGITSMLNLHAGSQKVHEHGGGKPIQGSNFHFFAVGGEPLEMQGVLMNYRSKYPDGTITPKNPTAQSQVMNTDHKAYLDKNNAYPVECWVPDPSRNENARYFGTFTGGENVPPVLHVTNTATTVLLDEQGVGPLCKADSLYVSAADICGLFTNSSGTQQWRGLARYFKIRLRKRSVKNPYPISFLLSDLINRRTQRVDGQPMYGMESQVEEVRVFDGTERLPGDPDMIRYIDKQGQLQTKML
# B1: 2077-4-1 (antibody, V domains shown)
# VH: EVQLQQSGPELVKPGASMKISCKASGYSFTGYTMNWVKQSHGENLEWIGLFNPYNGGTRYNQKFKGKATLTVDKSSSTAYMELLSLTSEDSAVYYCARLRNYGIGDDFFDYWGQGTTLTVSS
# VL: DIVMTQSHKFMSTSVGDRVSITCKASQDVGTAVAWYQQKPGQSPKLLIYWASTRHTGVPDRFTGSGSGTDFTLTISNVQSEDLTDYFCQQYSNYPYTFGGGTKLEIK
# B2: 2077-7-5 (antibody, V domains shown)
# VH: B1 VH with E43K, T58I, R59N, N101Y, T117S
# VL: B1 VL with Q27R, T84A, I106M
# B3: 2077-26-1 (antibody, V domains shown)
# VH: B1 VH with E10D, I20L, E43K, T58P, R59S, S88P, N101Y
# VL: B1 VL with Q38E, T84A, D85Y
# B4: 2077-10-1 (antibody, V domains shown)
# VH: B1 VH with V37M, S40G, E43K, T58P, R59N, N101Y
# VL: B1 VL with S76T, N93S
# B5: 2075-456-4 (antibody, V domains shown)
# VH: QVHLQQSGPELVKPGASVTISCKTSGYSFSSCWMNWVKQRPGQGLEWIGRIYPGDGDTKYTEKFKDKATLTADKSSSTAYMQLSSLTSVDSALYFCAISGSGLPYWGQGTLVTVSE
# VL: DIQMTQTTSSLSASLGDRVTISCRASQDIHNYLNWYQQKPDGTIKLLIYSTSRLHSGVPSRFSGSGSGTHYSLTINNLEQEDIATYFCQQTHTLPLTFGAGTKLELK
# B6: EBB-C1975-B5 (antibody, human IgG1, kappa, V domains shown)
# VH: QVQLVQSGPGLVKPSETLSLTCTVSGGSTSAYYWTWIRQPPGKGLEWIGYISHSGSTNYNPSLKSRVTISADTSKNQLSLKVNSVTAADTAVYYCARLGDTASLSRFYYYIDVWGKGTTVTVSS
# VL: EIVMTQSPDTLSLSPGERATLSCRASQSVSSNYLAWYQQKPGEAPRLLIYGASSRATGIPDRFSGSGSGTDFTLTISRLEPEDFAVYYCQQYGSSPPYTFGQGTRLEIKR
# B7: 2081-38-5 (antibody, V domains shown)
# VH: QVQLQQSGPELVKPGASVKISCKASGYTFSSSWINWVKQRPGQGLEWIGRIYPGDGDTNYNGKFKGKATLTADKSSSTVDMHLSSLTYVDSAVYFCAIHSSGFPHWGQGTLVTVSA
# VL: DIQMTQTTSSLSASLGGRVTISCRTSQDISDYLNWYQQKPDGAVKLLIYYTSRLHSGVPSRFSGSGSGTDYSLTISNLEQEDIATYFCQQTNTLPFTFGGGTKLEIK
# B8: 2081-25-6 (antibody, V domains shown)
# VH: QVQLQQSGAELVRPGSSVKISCKASGYAFSRYWMNWVKQRPGQGLEWIGQIYPGDGDTKYNGKFKDTATLTADKSSSTAYLQLSSLTSEDSAVYFCAKYGNYGMDYWGQGTSVTVSS
# VL: DAVMTQTPLSLPVSLGDQASISCRSSQSLEYGNGNTYLNWYLQKPGQSPQLLIYRVSNRFSGVLDRFSGSGSGTDFTLKISRVEAEDLGVYFCLQFTHVPYTFGGGTKLEIK
# Assays:
# JCV VLP (consensus) [1] = target: T2, JCV VLP (consensus) (JC virus, UniProt P03089 1-354); assay: ELISA on coated JCV VLPs
# T2 construct: also called JCV VLPs; JC virus VLPs
# JCV VLP (consensus) [2] = target: T2, JCV VLP (consensus); assay: ELISA on plates coated with JCV VLPs, OD 450 nm
# [3] = target: JCV infectious virus, isolates Mad-1 and Mad-4 (VP1) (JC virus); assay: cell-based or functional assay
# [4] = target: T1, BKV serotype I infectious virus (VP1); assay: cell-based or functional assay
# [5] = target: BKV serotype IV chimeric infectious virus (VP1 of strain ITA-4) (BK virus serotype IV); assay: cell-based or functional assay
# [6] = target: BKV serotype III chimeric infectious virus (VP1 of isolate AS) (BK virus serotype III); assay: cell-based or functional assay
# [7] = target: T1, BKV serotype I infectious virus (VP1); assay: cell-based or functional assay; remark: listed apart in the source
# [8] = target: BKV serotype II chimeric infectious virus (VP1 of isolate SB) (BK virus serotype II); assay: cell-based or functional assay
Binder,IC50 (JCV VLP (consensus) [1]) [pM],EC50 (read off the curve) (JCV VLP (consensus) [2]) [pM],neutralization EC50 [3] [µg/mL],neutralization EC90 [3] [µg/mL],neutralization EC50 [4] [µg/mL],neutralization EC90 [4] [µg/mL],further results
B1,34,~30,0.138,3.06,–,–,–
B2,651,~600,0.097,1.1,–,–,–
B3,67,~60,0.702,3.2,–,–,–
B4,100,~90,1.49,> 10,–,–,–
B5,–,–,–,–,0.092,0.503,–
B6,–,–,–,–,–,–,neutralization EC50 [5]: 0.15 µg/mL; neutralization EC90 [5]: 7.83 µg/mL; neutralization EC50 [6]: 0.76 µg/mL; neutralization EC90 [6]: > 100 µg/mL; neutralization EC50 [7]: 0.033 µg/mL; neutralization EC90 [7]: 5.53 µg/mL; neutralization EC50 [8]: 0.42 µg/mL; neutralization EC90 [8]: 24.2 µg/mL
B7,–,–,–,–,0.053,1.8,–
B8,–,–,–,–,0.213,0.723,–
